From patent publication US20220098307A1 (WUHAN YZY BIOPHARMA, published 2022)

Tests used:
Monkey CD3 = molecular target: T1, Monkey CD3 (monkey); assay: flow cytometry, monkey T cells
T1 construct: whole, on cells; also called CD3 of monkey CD3 positive T cells

Human CD3ε = molecular target: T2, Human CD3ε (human, UniProt P07766 23-126); assay: flow cytometry, human T cells
T2 construct: CD3 on T cells isolated from human whole blood
Text: 1) Cell preparation: T cells isolated from CD3-positive human whole blood were used for a CD3 end affinity detection of multifunctional antibody molecule; positive tumor cells of corresponding antigen were used for detecting affinity of tumor antigen; for example, CD38-positive MM. 1S cells (purchased from the Cell Resource Center of Shanghai Institutes for Biological Sciences, Chinese Academy of Sciences) or RPMI 8226 cells (purchased from the Cell Resource Center of Shanghai Institutes for Biological Sciences, Chinese Academy of Sciences) were used for CD38 antigen detection, and PD-L1 positive H358 cells (purchased from the Cell Resource Center of Shanghai Institutes for Biological Sciences, Chinese Academy of Sciences) were used for PD-L1 antigen detection, and so on. The cells were resuspended with 1% FBS-PBS, adjusted to a density of 4×10⁶/ml, and 50 μl of cells were taken from each well, and then plated at 2×10⁵ per well. Cell plating was operated on ice
2) Addition of the antibody: according to the experimental design, the antibody was diluted gradually, and dilution of antibody was operated on ice. For example, the initial concentration of antibody for dilution was 3000 nM, and the antibody was diluted by 3 times with 11 concentration gradients. The diluted antibody was added to a cell well at 50 μl per well, mixed well, and shaked and incubated at 4° C. 1100 rpm/min for 2 h; after washing, the cells were resuspend in 1% FBS-PBS, and a diluted secondary antibody PE anti-human IgG FC (Biolegend, 409304) was added with a final concentration of 8 ug/ml and a volume of 50 μl/well. At the same time, a well only added with cells and secondary antibody was set as a control, the components were mixed well, and incubated under shaking at 1100 rpm/min at 4° C. for 1 h;
5) Data analysis: the data was analyzed by a flow analysis software FlowJo 7.6 thereby obtaining an average fluorescence intensity of the specific antibody concentration, plotted by a Graphpad Prism 5 with the antibody concentration (nM) as an abscissa and the average fluorescence intensity as an ordinate; the EC50 value was calculated by the method of One site—Specific binding, and the EC50 value indicated the cell affinity of the antibody to the corresponding target antigen.

Binder	EC50 (Monkey CD3) [nM]	EC50 (Human CD3ε) [nM]
M1IC-WT-1 (bispecific antibody, human IgG1, kappa, structure 1 isotype control; CH2 WT) not shown heavy: not shown light: DVVMTQTPLSLPVSLGDQASISCRSSQSLVHSNGNTYLRWYLQKPGQSPKVLIYKVSNRFSGVPDRFSGSGSGTDFTLKISRVEAEDLGVYFCSQSTHVPWTFGGGTKLEIKRTVAAPSVFIFPPSDEQLKSGTASVVCLLNNFYPREAKVQWKVDNALQSGNSQESVTEQDSKDSTYSLSSTLTLSKADYEKHKVYACEVTHQGLSSPVTKSFNRGEC	174	153
M1IC-AAG-1 (bispecific antibody, human IgG1, kappa, L234A L235A, structure 1 isotype control; CH2 AAG) QVQLVESGGGVVQPGRSLRLSCAASGFTFSTYAMNWVRQAPGKGLEWVARIRSKYNNYATYYADSVKDRFTISRDDSKNTLYLQMNSLRAEDTAVYYCARHGNFGNSYVSWFAYWGQGTLVTVSSGGGGSGGGGSGGGGSQTVVTQEPSLTVSPGGTVTLTCRSSTGAVTTSNYANWVQQKPGQAPRGLIGGTNKRAPGVPARFSGSLLGGKAALTLSGVQPEDEAEYYCALWYSNLWVFGGGTKVEIKGGGGSDKTHTCPPCPAPEAAGGPSVFLFPPKPKDTLMISRTPEVTCVVVDVSHEDPEVKFNWYVDGVEVHNAKTKPREEQYNSTYRVVSVLTVLHQDWLNGKEYKCKVSNKALGAPIEKTISKAKGQPREPQVCTLPPSRDELTKNQVSLSCAVKGFYPSDIAVEWESNGQPENNYKTTPPVLDSDGSFFLVSKLTVDKSRWQQGNVFSCSVMHEALHNHYTQKSLSLSPGK heavy: not shown light: DVVMTQTPLSLPVSLGDQASISCRSSQSLVHSNGNTYLRWYLQKPGQSPKVLIYKVSNRFSGVPDRFSGSGSGTDFTLKISRVEAEDLGVYFCSQSTHVPWTFGGGTKLEIKRTVAAPSVFIFPPSDEQLKSGTASVVCLLNNFYPREAKVQWKVDNALQSGNSQESVTEQDSKDSTYSLSSTLTLSKADYEKHKVYACEVTHQGLSSPVTKSFNRGEC	205	152
M1IC-FES-1 (bispecific antibody, human IgG1, kappa, structure 1 isotype control; CH2 FES; also called MlIC-FES-1) QVQLVESGGGVVQPGRSLRLSCAASGFTFSTYAMNWVRQAPGKGLEWVARIRSKYNNYATYYADSVKDRFTISRDDSKNTLYLQMNSLRAEDTAVYYCARHGNFGNSYVSWFAYWGQGTLVTVSSGGGGSGGGGSGGGGSQTVVTQEPSLTVSPGGTVTLTCRSSTGAVTTSNYANWVQQKPGQAPRGLIGGTNKRAPGVPARFSGSLLGGKAALTLSGVQPEDEAEYYCALWYSNLWVFGGGTKVEIKGGGGSDKTHTCPPCPAPEFEGGPSVFLFPPKPKDTLMISRTPEVTCVVVDVSHEDPEVKFNWYVDGVEVHNAKTKPREEQYNSTYRVVSVLTVLHQDWLNGKEYKCKVSNKALPASIEKTISKAKGQPREPQVCTLPPSRDELTKNQVSLSCAVKGFYPSDIAVEWESNGQPENNYKTTPPVLDSDGSFFLVSKLTVDKSRWQQGNVFSCSVMHEALHNHYTQKSLSLSPGK heavy: EVKLDETGGGLVQPGRPMKLSCVASGFTFSDYWMNWVRQSPEKGLEWVAQIRNKPYNYETYYSDSVKGRFTISRDDSKSSVYLQMNNLRVEDMGIYYCTGSYYGMDYWGQGTSVTVSSASTKGPSVFPLAPSSKSTSGGTAALGCLVKDYFPEPVTVSWNSGALTSGVHTFPAVLQSSGLYSLSSVVTVPSSSLGTQTYICNVNHKPSNTKVDKKVEPKSCDKTHTCPPCPAPEFEGGPSVFLFPPKPKDTLMISRTPEVTCVVVDVSHEDPEVKFNWYVDGVEVHNAKTKPREEQYNSTYRVVSVLTVLHQDWLNGKEYKCKVSNKALPASIEKTISKAKGQPREPQVYTLPPCRDELTKNQVSLWCLVKGFYPSDIAVEWESNGQPENNYKTTPPVLDSDGSFFLYSKLTVDKSRWQQGNVFSCSVMHEALHNHYTQKSLSLSPGK light: DVVMTQTPLSLPVSLGDQASISCRSSQSLVHSNGNTYLRWYLQKPGQSPKVLIYKVSNRFSGVPDRFSGSGSGTDFTLKISRVEAEDLGVYFCSQSTHVPWTFGGGTKLEIKRTVAAPSVFIFPPSDEQLKSGTASVVCLLNNFYPREAKVQWKVDNALQSGNSQESVTEQDSKDSTYSLSSTLTLSKADYEKHKVYACEVTHQGLSSPVTKSFNRGEC	295	170
M1IC-NQ (bispecific antibody, human IgG1, kappa, N297Q, structure 1 isotype control; CH2 N297Q) not shown heavy: EVKLDETGGGLVQPGRPMKLSCVASGFTFSDYWMNWVRQSPEKGLEWVAQIRNKPYNYETYYSDSVKGRFTISRDDSKSSVYLQMNNLRVEDMGIYYCTGSYYGMDYWGQGTSVTVSSASTKGPSVFPLAPSSKSTSGGTAALGCLVKDYFPEPVTVSWNSGALTSGVHTFPAVLQSSGLYSLSSVVTVPSSSLGTQTYICNVNHKPSNTKVDKKVEPKSCDKTHTCPPCPAPELLGGPSVFLFPPKPKDTLMISRTPEVTCVVVDVSHEDPEVKFNWYVDGVEVHNAKTKPREEQYQSTYRVVSVLTVLHQDWLNGKEYKCKVSNKALPAPIEKTISKAKGQPREPQVYTLPPCRDELTKNQVSLWCLVKGFYPSDIAVEWESNGQPENNYKTTPPVLDSDGSFFLYSKLTVDKSRWQQGNVFSCSVMHEALHNHYTQKSLSLSPGK light: DVVMTQTPLSLPVSLGDQASISCRSSQSLVHSNGNTYLRWYLQKPGQSPKVLIYKVSNRFSGVPDRFSGSGSGTDFTLKISRVEAEDLGVYFCSQSTHVPWTFGGGTKLEIKRTVAAPSVFIFPPSDEQLKSGTASVVCLLNNFYPREAKVQWKVDNALQSGNSQESVTEQDSKDSTYSLSSTLTLSKADYEKHKVYACEVTHQGLSSPVTKSFNRGEC	378	194
M1IC-G2-1 (bispecific antibody, human IgG1, kappa, structure 1 isotype control; CH2 G2CH2) QVQLVESGGGVVQPGRSLRLSCAASGFTFSTYAMNWVRQAPGKGLEWVARIRSKYNNYATYYADSVKDRFTISRDDSKNTLYLQMNSLRAEDTAVYYCARHGNFGNSYVSWFAYWGQGTLVTVSSGGGGSGGGGSGGGGSQTVVTQEPSLTVSPGGTVTLTCRSSTGAVTTSNYANWVQQKPGQAPRGLIGGTNKRAPGVPARFSGSLLGGKAALTLSGVQPEDEAEYYCALWYSNLWVFGGGTKVEIKGGGGSDKTHTCPPCPAPPVAGPSVFLFPPKPKDTLMISRTPEVTCVVVDVSHEDPEVQFNWYVDGVEVHNAKTKPREEQFNSTFRVVSVLTVVHQDWLNGKEYKCKVSNKGLPAPIEKTISKTKGQPREPQVCTLPPSRDELTKNQVSLSCAVKGFYPSDIAVEWESNGQPENNYKTTPPVLDSDGSFFLVSKLTVDKSRWQQGNVFSCSVMHEALHNHYTQKSLSLSPGK heavy: EVKLDETGGGLVQPGRPMKLSCVASGFTFSDYWMNWVRQSPEKGLEWVAQIRNKPYNYETYYSDSVKGRFTISRDDSKSSVYLQMNNLRVEDMGIYYCTGSYYGMDYWGQGTSVTVSSASTKGPSVFPLAPSSKSTSGGTAALGCLVKDYFPEPVTVSWNSGALTSGVHTFPAVLQSSGLYSLSSVVTVPSSSLGTQTYICNVNHKPSNTKVDKKVEPKSCDKTHTCPPCPAPPVAGPSVFLFPPKPKDTLMISRTPEVTCVVVDVSHEDPEVQFNWYVDGVEVHNAKTKPREEQFNSTFRVVSVLTVVHQDWLNGKEYKCKVSNKGLPAPIEKTISKTKGQPREPQVYTLPPCRDELTKNQVSLWCLVKGFYPSDIAVEWESNGQPENNYKTTPPVLDSDGSFFLYSKLTVDKSRWQQGNVFSCSVMHEALHNHYTQKSLSLSPGK light: DVVMTQTPLSLPVSLGDQASISCRSSQSLVHSNGNTYLRWYLQKPGQSPKVLIYKVSNRFSGVPDRFSGSGSGTDFTLKISRVEAEDLGVYFCSQSTHVPWTFGGGTKLEIKRTVAAPSVFIFPPSDEQLKSGTASVVCLLNNFYPREAKVQWKVDNALQSGNSQESVTEQDSKDSTYSLSSTLTLSKADYEKHKVYACEVTHQGLSSPVTKSFNRGEC	165	127
M1IC-AG2-1 (bispecific antibody, human IgG1, kappa, structure 1 isotype control; CH2 AG2CH2) QVQLVESGGGVVQPGRSLRLSCAASGFTFSTYAMNWVRQAPGKGLEWVARIRSKYNNYATYYADSVKDRFTISRDDSKNTLYLQMNSLRAEDTAVYYCARHGNFGNSYVSWFAYWGQGTLVTVSSGGGGSGGGGSGGGGSQTVVTQEPSLTVSPGGTVTLTCRSSTGAVTTSNYANWVQQKPGQAPRGLIGGTNKRAPGVPARFSGSLLGGKAALTLSGVQPEDEAEYYCALWYSNLWVFGGGTKVEIKGGGGSDKTHTCPPAPAPPVAGPSVFLFPPKPKDTLMISRTPEVTCVVVDVSHEDPEVQFNWYVDGVEVHNAKTKPREEQFNSTFRVVSVLTVVHQDWLNGKEYKCKVSNKGLPAPIEKTISKTKGQPREPQVCTLPPSRDELTKNQVSLSCAVKGFYPSDIAVEWESNGQPENNYKTTPPVLDSDGSFFLVSKLTVDKSRWQQGNVFSCSVMHEALHNHYTQKSLSLSPGK heavy: EVKLDETGGGLVQPGRPMKLSCVASGFTFSDYWMNWVRQSPEKGLEWVAQIRNKPYNYETYYSDSVKGRFTISRDDSKSSVYLQMNNLRVEDMGIYYCTGSYYGMDYWGQGTSVTVSSASTKGPSVFPLAPSSKSTSGGTAALGCLVKDYFPEPVTVSWNSGALTSGVHTFPAVLQSSGLYSLSSVVTVPSSSLGTQTYICNVNHKPSNTKVDKKVEPKSCDKTHTCPPAPAPPVAGPSVFLFPPKPKDTLMISRTPEVTCVVVDVSHEDPEVQFNWYVDGVEVHNAKTKPREEQFNSTFRVVSVLTVVHQDWLNGKEYKCKVSNKGLPAPIEKTISKTKGQPREPQVYTLPPCRDELTKNQVSLWCLVKGFYPSDIAVEWESNGQPENNYKTTPPVLDSDGSFFLYSKLTVDKSRWQQGNVFSCSVMHEALHNHYTQKSLSLSPGK light: DVVMTQTPLSLPVSLGDQASISCRSSQSLVHSNGNTYLRWYLQKPGQSPKVLIYKVSNRFSGVPDRFSGSGSGTDFTLKISRVEAEDLGVYFCSQSTHVPWTFGGGTKLEIKRTVAAPSVFIFPPSDEQLKSGTASVVCLLNNFYPREAKVQWKVDNALQSGNSQESVTEQDSKDSTYSLSSTLTLSKADYEKHKVYACEVTHQGLSSPVTKSFNRGEC	197	163
